Laboratory results reported in US6689364B2, “Borrelia burgdorferi polypeptides and uses thereof” (Tufts University, priority 2000, dated 2004).
“Also recorded” adds a separate entry of the source.

B1: FTK-OspA (protein)
chain: KQNVSSLDEKNSVSVDLPGEMKVLVSKEKNKDGKYDLIATVDKLELKGTSDKNNGSGVLEGVKADKSKVKLTISDDLGQTTLEVFKEDGKTLVSKKVTSKDKSSTEEKFNEKGEVSEKIITRADGTRLEYTGIKSDGSGKAKEVLKGFTLEGKLTAEKTTLVVKEGTVTLSKNISKSGEVSVELNDTDSSAATKKTAAWNSGTSTLTITVNSKKTKDLVFTKENTITVQQYDSNGTKLEGSAVEITKLDEIKNALK

Experiments:
[1] = test system: HLA-DRB1*0401 restricted OspA-specific human T cell clones; assay: Cytokine production by T cell clones on stimulation with OspA; format: cell-based; details: for production of interferon gamma by T cell clones: FIG. 3A; for production of interleukin 13 by T cell clones: FIG. 3B
Protocol: (§1) Binding of OspA to HLA-DRB1*0401 is determined by measuring stimulation of T cells reactive with wildtype OspA. The stimulation of T cells is determined by measuring OspA-induced proliferation or cytokine production, including interferon gamma and interleukin 13 (see Examples, below).
(§2) Human T cells were cloned from the synovial fluid of an HLA DRB1*0401 homozygous patient based upon their ability to recognize the epitope OspA165-173 in the context of HLA-DRB1*0401. These clones were then tested for their ability to respond functionally to wild type versus FTK OspA by either proliferation or cytokine secretion.
(§3) Three different human DR4-restricted T cell clones from a patient with treatment-resistant Lyme arthritis were selected for their ability to respond to the wild type OSpA165-173 peptide. […] These T cells proliferate in response to stimulation with wildtype OspA, but not FTK-OspA.

monoclonal antibody LA-2 = assay: In vitro binding of protective anti-OspA monoclonal antibody LA-2; details: in vitro assay, FIG. 6
Text: Monoclonal antibody LA-2, which provides passive immunity against B. burgdorferi in mice, binds an epitope in OspA.

N40 B. burgdorferi = assay: Mouse vaccination and B. burgdorferi challenge, protection against Lyme arthritis; format: in vivo, mice; details: trials A and B together; for mice protected from development of arthritis: 10 μg vaccine on days 0, 14, 28, day 35 challenge with 5×10^3 or 1×10^4 N40 B. burgdorferi in footpad, day 56 histology; for mice protected from development of arthritis (protected/total): same protocol, number of mice
Text: The mouse vaccination protocol was based upon experiments in the literature which initially identified OspA as having potential as a vaccine. The vaccine has not been tested in vivo with tick challenge due to the technically difficult nature of the animal handling for such experiments. However, the artificial system used here has been utilized by others in the past and reflects accurately on the protective ability of the modified vaccine. (Fikrig et al, 1997 Immunity 6:531-539; Bockenstedt et al,1993 J Immunol 151:900-906, Fikrig et al, 1992 PNAS 89:5418-5421)
The correlation between infection and arthritis, measured for the first vaccination trial, was 1:1.
(§4) On day 35, the vaccinated mice were exposed to 5×10^3 or 1×10^4 passage 0 N40 B. burgdorferi in the right footpad. On day 56, mice were sacrificed and the following tissue samples were taken for further analysis: ankles (for histology to analyze arthritis), blood and bladder (for culture to detect B. burgdorferi), serum (for serology to determine the antibody response), and ears (for PCR to detect B. burgdorferi).

[2] = test system: HLA-DRB1*0401 restricted OspA-specific human T cell clones; assay: Proliferation response of human DR4-restricted T cell clones to OspA; format: cell-based; details: for proliferation response of T cell clones: three human DR4-restricted T cell clones from a patient with treatment-resistant Lyme arthritis, FIG. 2
Protocol: as §1, §2, §3

OspA = assay: Serum OspA-specific IgG in immunized mice; format: in vivo; details: for serum OspA-specific IgG pre-infection: FIG. 7A; for serum OspA-specific IgG post-infection: FIG. 7B
Text: as §4

Row | Molecule | production of interferon gamma by T cell clones [1] | production of interleukin 13 by T cell clones [1] | binding of monoclonal antibody LA-2 (monoclonal antibody LA-2) | mice protected from development of arthritis (N40 B. burgdorferi) [%] | mice protected from development of arthritis (protected/total) (N40 B. burgdorferi) | proliferation response of T cell clones [2] | serum OspA-specific IgG pre-infection (OspA) | serum OspA-specific IgG post-infection (OspA) | ability to stimulate OspA-specific T cell clones (proliferation or cytokine secretion) ([2]; clones from synovial fluid of an HLA DRB1*0401 homozygous patient)
1 | wildtype OspA: recombinant wildtype B. burgdorferi outer surface protein A [reference compound] | induces production | induces production | binds; also recorded: equivalently | 75 | 12/16 | proliferate | similar | similar | 
2 | B1 | not | not | binds; also recorded: equivalently | 87.5 | 14/16 | not | similar | similar | significantly decreased
